Consider 13 sequences from the supplement of paper PMC9170038.

The data set has as its system MS2 coat protein. Put plainly: apparent KD of MS2 coat protein; designed switch direction (-1 OFF switch, 1 ON switch): 1; higher = weaker reporter binding. The gist of the method:
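On Illumina chips, designed RNA switches with common flanks were made by stalled E. coli RNA polymerase. Titrations with SNAP-549-labelled MS2 coat protein, doubling from 0.7 or 1.5 nM to 3 µM, were done with no input, with 200 uM small-molecule ligand, or with an oligonucleotide input. Apparent KD is the median per design over clusters, from curve fits of normalised cluster fluorescence.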

[1] abbreviates: Eterna round: R95, input ligand: FMN 200 uM.
Setting [2] is: Eterna round: R95, input ligand: microRNA oligo, concentration not stated.
[3] abbreviates: Eterna round: R95, input ligand: none.
Where [4] appears, read: input ligand: microRNA oligo, concentration not stated.

Regarding “AUAAAACAUGAGGAUCACCCAUGUCAACAAAGUCGAGGAUAUGGGCAAAUAUAAUAAGAACCAGAAGGCGAAUAAU [salish99_ss1_r3_023] (puzzle: Same State 1)”, the “apparent KD of MS2 coat protein” value runs as follows: under setting [1], 36.1 nM; under setting [2], 204 nM; under setting [3], 336 nM.

For the sequence “AUUAUACAUGAGGAUCACCCAUGUAAUUAAUUAAUUAAGAUCAAGGAUAUCAGCUCGAAUAGAGCUGAGAAGGUGAUCACAUGU [SSNG3/20-B1] (Eterna round: R96, puzzle: Same State NG 3)”, the “apparent KD of MS2 coat protein” value under setting [4] was 218 nM.

Take “UGAAUAGUGAUAGGAUAUACAUGAGGAAUCCUCGUAGAAGGAUCAUAACAUGAGGAUCACCCAUGUAGCGCUCGAAAGAGCGCA [Mat - Same State NG 1 - JL mod - D55] (Eterna round: R96, puzzle: Same State NG 1)”: the “apparent KD of MS2 coat protein” value (input ligand: FMN 200 uM) worked out at 244 nM, the “apparent KD of MS2 coat protein” value under setting [4] was 207 nM and the “apparent KD of MS2 coat protein” value (input ligand: none) is 56.5 nM.

Regarding “UUAACAUGAGGAUCACCCAUGUAUAGGGAGUUUGCAAUUUGACAGGAUAUUGAAGAUUUAUAUAGCAAGAAGGGUCGUUAGUCU [JR_SSNG3_Sub005] (Eterna round: R96, puzzle: Same State NG 3)”, the “apparent KD of MS2 coat protein” value (input ligand: FMN 200 uM) was found to be 38 nM, the “apparent KD of MS2 coat protein” value under setting [4] amounted to 44.9 nM and the “apparent KD of MS2 coat protein” value (input ligand: none) came out at 53.6 nM.

On to “AUUAAUUAUGCAGGAUAUGAUUAACAUGAGGAUCACCCAUGUGGUGUUGUGAGUAAGGAGAGUGAUCAGAAGGGCAUUUUUUUU [JMF's solution 66] (Eterna round: R96, puzzle: Same State NG 2)”, for which the “apparent KD of MS2 coat protein” value is, setting by setting: (input ligand: FMN 200 uM) 652 nM; under setting [4], 524 nM; (input ligand: none) 449 nM.

As for “AUUGGGUAACGAGGAUAUCGUUUUUGUUUUCUUCGAGAAGGCGUUAUUGUUUAUUUCUAUUGUUACAUGAGGAUCACCCAUGUU [JR_SSNG1_Sub055] (Eterna round: R96, puzzle: Same State NG 1)”, the “apparent KD of MS2 coat protein” value amounted to 15 nM (input ligand: FMN 200 uM), 13.8 nM under setting [4] and 21.5 nM (input ligand: none).

On to “AAAGGAUGAUGUUACAUGAGGAUCACCCAUGUUGUGAUAACUAAGGAUAUGUGUUUAACCAGUUAAUAGAAGGUAGGAUCAUAA [AK SSNG3-V2-4] (Eterna round: R96, puzzle: Same State NG 3)”, for which the “apparent KD of MS2 coat protein” value is, setting by setting: (input ligand: FMN 200 uM) 168 nM; under setting [4], 97.4 nM; (input ligand: none) 124 nM.

For the sequence “AGCCGAGACGCAGGAUAUAGAUAUCUACAUGAGGAUCACCCAUGUAGCAACACGUGGUAGUGAUUCUAGAAGGGUGCUCGGCGC [Omei SS(NG)2 Cv7] (Eterna round: R96, puzzle: Same State NG 2)”, the “apparent KD of MS2 coat protein” value by setting is: (input ligand: FMN 200 uM) 44.9 nM; under setting [4], 322 nM; (input ligand: none) 504 nM.

“CAAACUUAGUAGGGUAGGUACCCAGGACGACAUGAGGAUCACCCAUGUAAGAGCUUUUUGCUCGUCGUCAACAGUUG [JR_SHM208a_Sub019] (puzzle: Sensor for hsa-mir-208a)”: the “apparent KD of MS2 coat protein” value by setting is: under setting [1], 19.8 nM; under setting [2], 22.5 nM; under setting [3], 19.8 nM.

As for “UUGAAGAAUUAAGGAUAUUGAAUACAUAUGUUUAACAUGAGGAUCACCCAUGUGGGUUGCGGUGUCGAGAAGGUAAAUUAAUAG [Mat - same State NG 2 - JL mod - D94] (Eterna round: R96, puzzle: Same State NG 2)”, the “apparent KD of MS2 coat protein” value is, setting by setting: (input ligand: FMN 200 uM) 221 nM; under setting [4], 191 nM; (input ligand: none) 291 nM.

With “GGUCCAGCCUGAGCUGGACGAAAGUAUGUACAUGAGGAUCACCCAUGUCAUGUAUAAGUUUUUUGUUUGUCUUGAAA [Sensorship 2 - Jieux - Sensor for hsa-mir-208a] (puzzle: Sensor for hsa-mir-208a)”, the “apparent KD of MS2 coat protein” value reads like this: under setting [1], 22.4 nM; under setting [2], 11.2 nM; under setting [3], 22.7 nM.

As for “AUCCUACAUGAGGAUCACCCAUGUGAAGCCUCAAUAGGAUAUGCGUGUGCCUUGGCGCAUGCAGAAGGAUUGAAGC [JL Aveso mod 3] (puzzle: Same State 1)”, the “apparent KD of MS2 coat protein” value under setting [1] worked out at 91 nM, the “apparent KD of MS2 coat protein” value under setting [2] came out at 311 nM and the “apparent KD of MS2 coat protein” value under setting [3] amounted to 967 nM.

Consider “AGCUAUCGAAAACGAUAGCAAAAGCAUGUACAUGAGGAUCACCCAUGUCGUGUACAAGCUUUUUGCUCGUCUUAAAA [Zipper 23 - 5] (puzzle: Sensor for hsa-mir-208a)”, for which the “apparent KD of MS2 coat protein” value reads like this: under setting [1], 522 nM; under setting [2], 13.9 nM; under setting [3], 534 nM.
